Reference: patent publication US10960048B2, “Alpha-1-microglobulin for use in the protection of kidneys in radionuclide therapy” (Guard Therapeutics International AB, priority 2015, dated 2021)

B1: ^125I-A1M: Recombinant human A1M radiolabelled with 125I using the chloramine T method (protein, UniProt P02760 20-203, looked up)
Alpha-1-microglobulin: GPVPTPPDNIQVQENFNISRIYGKWYNLAIGSTCPWLKKIMDRMTVSTLVLGEGATEAEISMTSTRWRKGVCEETSGAYEKTDTDGKFLYHKSKWNITMESYVVHTNYDEYAIFLTKKFSRHHGPTITAKLYGRAPQLRETLLQDFRVVAQGVGIPEDSIFTMADRGECVPGEQEPEPILIPRV
modifications: Alpha-1-microglobulin 125I radiolabel
B2: α1-microglobulin (protein, listed as Homo sapiens)
chain: MHHHHHHHHGGGGGIEGRGPVPTPPDNIQVQENFNISRIYGKWYNLAIGSTCPWLKKIMDRMTVSTLVLGEGATEAEISMTSTRWRKGVCEETSGAYEKTDTDGKFLYHKSKWNITMESYVVHTNYDEYAIFLTKKFSRHHGPTITAKLYGRAPQLRETLLQDFRVVAQGVGIPEDSIFTMADRGECVPGEQEPEPILIPR
notes: Recombinant human A1M expressed in E. coli

Experiments:
[1] = patients treated with PRRT; cited from earlier work
[2] = test system: ^177Lu-octreotide PRRT kidney damage mouse model; assay: Short-term radioprotection of kidneys with A1M in PRRT (^177Lu-octreotide PRRT kidney damage mouse model)
Experimental: NB, ^177Lu-DOTATATE and A1M are injected separately at T=0. Analytic Methods:
The mice were left for 1 day or 8 days, and then sacrificed with sampling of plasma and urine, as described above.

[3] = in vivo, iv
[4] = mouse, in vivo, iv
Experimental: Organ-specific uptake values were calculated as percent injected activity per gram of tissue (% IA/g) or percent injected activity (% IA).

[5] = from blood stream; cited from earlier work
[6] = SDS-PAGE / Western blotting of injected non-labelled A1M in kidneys and serum; format: in vivo, NMRI mice
Experimental: SDS-PAGE analysis was performed on kidneys and serum from animals that had been injected i.v. with non-labeled A1M (100 μl/animal, 1.5 mg/ml). Animals were terminated at 10, 20 and 60 minutes post-injection, blood and kidneys were sampled and kidneys were washed and placed in 1 ml PBS. Following mechanical tissue homogenization, tissue was centrifuged at 10,000×g for 10 minutes and supernatant was transferred to a new tube and used for further analysis as describe below. Serum was obtained from the blood samples by centrifugation at 1,000×g for 10 minutes. SDS-PAGE gels were run under reducing conditions and the separated proteins were transferred to polyvinylidene difluoride (PVDF) membranes (Immobilon-P, Millipore, Bedford, Mass., USA) using Trans-Blot Turbo transfer system (Bio-Rad, Delaware, USA). […] The membranes were developed using a ChemiDoc MP Imaging system (BioRad).

[7] = Immunohistochemistry and confocal fluorescence microscopy of A1M and octreotide-647 in kidney sections; parameters: species or system mice; conditions: mouse, in vivo
Experimental: However, only wild-type data are included. After euthanization, kidneys were removed directly frozen and embedded in Tissue Tec. […] Serial sectioning was performed, collecting 3-4 sections per slide, of which adjacent slides were used for either chromogen immunohistochemistry (IHC) or immunofluorescence (IF) labeling. Sections were post-fixed in 4% paraformaldehyde (PFA, Sigma, St. Louis, Mo., USA, dissolved in PBS, 0.1 M, pH 7.4) for 15 minutes, and rinsed in PBS two times for 5 minutes. For single labeling of […], sections were incubated with 0.03% hydrogen peroxide (H2O2, Merck, Darmstadt, Germany) for five minutes for chromogen visualization (IHC). For both chromogen and fluorescence visualization sections were incubated with 1% bovine serum albumin (BSA, Sigma, St. Louis, Mo., USA; diluted in PBS) for 30 minutes. Sections were then incubated with rabbit anti-human […] […] The choices of optical sections and scan depths were determined from the centre position of the majority of nuclei (DAPI labeling) in the scanned field. Sequential scanning was performed of channels displaying AF488, HiLyte Fluor 647, DAPI and Texas Red fluorescence. For each channel the renal profile with the highest fluorescence intensities was selected as a reference, from which the acquisition settings (laser power, PMT detector gain, digital offset) were optimized and used for all scanned areas. […]

| Molecule | creatinine clearance loss [1] [% per year] | plasma creatinine levels (marker of GFR) versus control ([2]; 150 MBq, after 1 and 8 days) | albumin concentrations in urine (proteinuria) versus control ([2]; 150 MBq, after 1 and 8 days, more pronounced after 1 day) | fraction of i.v. administered substance localized in kidneys [3] [%] | time of maximum (peak) uptake in the kidneys post-injection [4] [min] | uptake in the kidneys (biodistribution) [4] | GFR (plasma creatinine) on simultaneous infusion of A1M ([2]; 150 μg A1M + 150 MBq 177Lu-DOTATATE, 1 and 8 days, highly significant after 8 days (P<0.01)) | proteinuria (urine albumin) on simultaneous A1M-treatment, after 1 day ([2]; 150 μg A1M + 150 MBq 177Lu-DOTATATE, 1 day) | significantly reduced proteinuria (urine albumin) on simultaneous A1M-treatment, after 8 days ([2]; 150 μg A1M + 150 MBq 177Lu-DOTATATE, 8 days) | T½ of transport across the vessel walls to the extravascular compartment [5] [min] | state of A1M found in blood and kidneys ([6]; 10, 20 and 60 minutes post-injection, 150 μg A1M i.v.) | time of highest amounts of A1M in kidneys and serum ([6]; Western blot, 10, 20 and 60 minutes post-injection) [min] | time post-injection up to which A1M is intact, full-length ([6]; kidneys, i.v. injection) [min] | fluorescence detection in kidney at 4 hours p.i. [7] | maximum of injected substance found per gram kidney tissue [4] [%] |
| --- | --- | --- | --- | --- | --- | --- | --- | --- | --- | --- | --- | --- | --- | --- | --- |
| C[C@@H](O)[C@H](NC(=O)[C@@H]1CSSC[C@H](NC(=O)[C@@H](Cc2ccccc2)NC(=O)CN2CCN(CC(=O)[O-])CCN(CC(=O)[O-])CCN(CC(=O)[O-])CC2)C(=O)N[C@@H](Cc2ccc(O)cc2)C(=O)N[C@H](Cc2c[nH]c3ccccc23)C(=O)N[C@@H](CCCCN)C(=O)N[C@@H]([C@@H](C)O)C(=O)N1)C(=O)O.[177Lu+3] [^177Lu-DOTATATE, ^177Lu-DOTA0, Tyr3]octreotate, reference compound] | 3.8 | significantly increased | significantly elevated | – | – | – | – | – | – | – | – | – | – | – | – |
| B1 | – | – | – | > 30 | 20 | High uptake | – | – | – | – | – | – | – | – | – |
| B2 | – | – | – | – | 10 | – | restored the GFR to control levels | significantly reduced | not | 2 to 3 | intact, full-length | 10 | ≥ 60 | significant decrease | 76 |
